Data as given in patent US10793871B2, “Nucleic acid molecule encoding glei protein variant with increased phytic acid sensitivity and use thereof” (University-Industry Foundation, Yonsei University, priority 2015, dated 2020).

Assays:
[1] = molecular target: 6x-histidine-fused LOS4 (LOS4-His) (Arabidopsis) (UniProt Q93ZG7)
LOS4 ATPase = test: Steady-state ATPase assay of LOS4-His; assay type: biochemical, Arabidopsis thaliana; settings: for stimulation of LOS4 ATPase activity in the absence of InsP6: 1 μM LOS4-His, 2 mM ATP, 2 μM MBP-Gle1C or variant
Experimental: A steady-state ATPase assay was performed as described by Alcázar-Román et al. (Inositol hexakisphosphate and Gle1 activate the DEAD-box protein Dbp5 for nuclear mRNA export. Nat. Cell Biol. 8: 711-716, 2006) with slight modifications. The ATPase assay was performed with a LOS4-His protein in a 96-well plate using a buffer containing 20 mM HEPES (pH 7.5), 150 mM NaCl, 3 mM MgCl2, 1 mM DTT, 2 mM ATP, 6 mM phosphoenolpyruvate, 1.2 mM NADH, 1 mg/ml BSA and 2% (v/v) pyruvate kinase/lactate dihydrogenase (Sigma-Aldrich) in a total volume of 100 μl. Polyadenylic acid was added at 50 μg/ml or different concentrations as described above. Absorbance at 340 nm was measured using a VersaMax absorbance microplate reader (Molecular Devices), and the data were analyzed using SoftMax Pro software (Molecular Devices).
Gle1 and Gle1C (aa residues 244-611) were cloned into a pMAL C2X vector (New England Biolabs) for MBP fusion, LOS4 was cloned into a pET-29a vector for His fusion. MBP-Gle1 and MBP-Gle1C proteins were expressed in a BL21 (DE3) strain, and LOS4-His proteins were expressed in a Rosseta (DE3) strain of Escherichia coli. Cells were grown at 37° C. to an A600 of 0.4, shifted to 16° C., and induced by 0.25 mM IPTG for 16 hours. The MBP- and His-fusion proteins were purified following the manufacturer's introductions using MBP Excellose (Bioprogen) and His60 Ni Superflow™ resin (Clontech), respectively.

[2] = molecular target: 6x-histidine-fused LOS4 (LOS4-His) (Arabidopsis) (UniProt Q93ZG7); remark: listed apart in the source
[3] = molecular target: T1, LOS4 RNA helicase activity (Arabidopsis thaliana, UniProt Q93ZG7); test: In vitro nucleic acid-melting assay with hairpin-shaped molecular beacons; assay type: biochemical; settings: in the presence of ATP; LOS4-His:MBP-Gle1 1:1, 1:2, 1:4 or LOS4-His only
T1 construct: LOS4 was cloned into a pET-29a vector for His fusion; made in house; host or cells: Escherichia coli Rosetta (DE3) for LOS4-His; BL21 (DE3) for MBP-Gle1
T1 sequence (Q93ZG7 1-496): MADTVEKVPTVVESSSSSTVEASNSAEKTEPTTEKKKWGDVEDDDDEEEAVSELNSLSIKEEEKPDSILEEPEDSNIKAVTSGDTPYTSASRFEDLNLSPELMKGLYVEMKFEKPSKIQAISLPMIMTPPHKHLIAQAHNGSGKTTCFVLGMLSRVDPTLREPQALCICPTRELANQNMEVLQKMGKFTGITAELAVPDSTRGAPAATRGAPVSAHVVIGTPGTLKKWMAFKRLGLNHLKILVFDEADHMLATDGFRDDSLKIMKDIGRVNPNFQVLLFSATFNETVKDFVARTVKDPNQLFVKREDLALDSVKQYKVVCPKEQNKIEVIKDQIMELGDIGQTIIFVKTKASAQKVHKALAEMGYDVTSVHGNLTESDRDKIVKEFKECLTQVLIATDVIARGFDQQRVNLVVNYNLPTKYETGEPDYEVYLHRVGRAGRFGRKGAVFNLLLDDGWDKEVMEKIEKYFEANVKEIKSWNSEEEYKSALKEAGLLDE
Experimental: A nucleic acid-melting assay was performed as described by Kim et al. (Cold shock domain proteins and glycine-rich RNA-binding proteins from Arabidopsis thaliana can promote the cold adaptation process in Escherichia coli. Nucleic Acids Res. 35: 506-516, 2007) using 78-nucleotide-long, 9-bp-containing, hairpin-shaped molecular beacons conjugated with a fluorophore (tetramethylrhodamine) and a quencher (Dabcyl). Spectrofluorometry was performed using a fluorescence spectrophotometer (Hitachi F-2000) at an excitation wavelength of 555 nm and an emission wavelength of 575 nm.

LOS4-His = molecular target: T2, LOS4-His (Arabidopsis thaliana, UniProt Q93ZG7); test: In vitro pull-down assay; assay type: binding; settings: Coomassie blue staining of eluted proteins
T2 construct: LOS4 was cloned into a pET-29a vector for His fusion; made in house; host or cells: Escherichia coli Rosetta (DE3) for LOS4-His; BL21 (DE3) for MBP-Gle1
T2 sequence (Q93ZG7 1-496): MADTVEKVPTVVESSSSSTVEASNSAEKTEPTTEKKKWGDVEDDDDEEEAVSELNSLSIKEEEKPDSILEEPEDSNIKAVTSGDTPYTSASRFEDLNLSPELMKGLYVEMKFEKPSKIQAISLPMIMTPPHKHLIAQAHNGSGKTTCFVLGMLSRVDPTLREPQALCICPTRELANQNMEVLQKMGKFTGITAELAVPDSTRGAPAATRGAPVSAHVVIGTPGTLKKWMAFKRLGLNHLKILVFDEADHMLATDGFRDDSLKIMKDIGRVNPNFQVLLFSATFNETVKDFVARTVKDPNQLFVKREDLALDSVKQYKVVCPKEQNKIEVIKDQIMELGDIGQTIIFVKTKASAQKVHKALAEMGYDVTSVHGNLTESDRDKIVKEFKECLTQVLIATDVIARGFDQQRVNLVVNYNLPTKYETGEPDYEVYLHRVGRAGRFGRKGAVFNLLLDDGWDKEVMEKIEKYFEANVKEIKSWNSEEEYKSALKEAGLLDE
Experimental: MBP and MBP-Gle1 proteins immobilized on MBP Excellose (Bioprogen) were incubated with LOS4-His proteins for 2 hours at room temperature. Similarly, LOS4-His proteins immobilized on a His60 Ni Superflow™ resin (Clontech) were incubated with MBP or MBP-Gle1 for 2 hours at room temperature. After extensive washing of the resins, the bound proteins were eluted with 2× SDS sample buffer, and the eluted proteins were visualized by Coomassie blue staining.

MBP-Gle1C (ID)
LOS4 ATPase activity in the absence of InsP6 (fold decrease) [1]: 2

O=S(=O)(O)OC1C(OS(=O)(=O)O)C(OS(=O)(=O)O)C(OS(=O)(=O)O)C(OS(=O)(=O)O)C1OS(=O)(=O)O (centres unmarked) [InsP6 analog, reference compound]
further stimulation of LOS4 ATPase activity (LOS4 ATPase; LOS4-His 1 μM, ATP 2 mM, RNA, MBP-Gle1 2 μM plus 10 μM InsP6 analog): did not do so

MBP fusion protein of the carboxyl-terminal domain of Gle1 (MBP-Gle1C; amino acid residues 244-611)
apparent kcat of LOS4-His ATPase [2]: 0.565 s⁻¹

polyadenylic acid [RNA, reference compound]
LOS4 ATPase activity (LOS4 ATPase; LOS4-His 1 μM, ATP 2 mM, RNA 50 μg/ml only): moderately stimulated LOS4 ATPase activity

B1: MBP-Gle1C (IS1): MBP fusion of Arabidopsis Gle1C variant InsP6-Sensitive 1: mutation from A437 to K (protein)
chain: QEKARAEAQMLAKIRAEEEKKEVERKAAREVAEKEVADRKAAEQKLAEQKAVIESVTGSSATSNAQAGGNSIRAAESALILENHRLKKLEELETTNQSLKSRSNENFSSFEKHIGRVIRQISGTKDSVSGKINDIVKIFKDPRCPVSISIAAFAKKMVTTKEKPNPFACSYVIVYINSQFPQVMDILLAEFHKKCIYTVPKHIVNSQSAWDSDAYERLDSIMRLYGALVQTDIRVGNATNVHGIEHGWAWLARFLNKIPANRATATALNSFLQTAGFGLHQRYKSQFLKVVNVVREHFLQKLRAKKDTSDLLVIIAEITAYLDDRMYLKEPEGRAMKTTSTLSSELTAELNQPNYNQNYQRNDYRNYY
stimulation of LOS4 ATPase activity in the absence of InsP6 (LOS4 ATPase; RNA, no InsP6): activated LOS4 ATPase activity to similar degrees | InsP6 concentration at which LOS4-stimulating activity increases above basal (LOS4 ATPase; with RNA, InsP6 0-100 μM): 100 nM | InsP6 concentration giving maximum LOS4-stimulating activity (LOS4 ATPase; with RNA, InsP6 0-100 μM): ~1 µM

B2: MBP-Gle1C (IS2): MBP fusion of Arabidopsis Gle1C variant InsP6-Sensitive 2: double mutations from E433 to K and from A437 to K (protein)
chain: QEKARAEAQMLAKIRAEEEKKEVERKAAREVAEKEVADRKAAEQKLAEQKAVIESVTGSSATSNAQAGGNSIRAAESALILENHRLKKLEELETTNQSLKSRSNENFSSFEKHIGRVIRQISGTKDSVSGKINDIVKIFKDPRCPVSISIAAFAKKMVTTKEKPNPFACSYVIVYINSQFPQVMDILLAKFHKKCIYTVPKHIVNSQSAWDSDAYERLDSIMRLYGALVQTDIRVGNATNVHGIEHGWAWLARFLNKIPANRATATALNSFLQTAGFGLHQRYKSQFLKVVNVVREHFLQKLRAKKDTSDLLVIIAEITAYLDDRMYLKEPEGRAMKTTSTLSSELTAELNQPNYNQNYQRNDYRNYY
stimulation of LOS4 ATPase activity in the absence of InsP6 (LOS4 ATPase; RNA, no InsP6): reduced abilities to stimulate LOS4 | InsP6 concentration at which LOS4-stimulating activity increases above basal (LOS4 ATPase; with RNA, InsP6 0-100 μM): 1 nM | InsP6 concentration giving full stimulation of LOS4 ATPase activity (LOS4 ATPase; with RNA, InsP6 0-100 μM): 100 nM

B3: MBP-Gle1C (ID): MBP fusion of Arabidopsis Gle1C variant InsP6-Dead: mutation from K436 to A (protein)
chain: QEKARAEAQMLAKIRAEEEKKEVERKAAREVAEKEVADRKAAEQKLAEQKAVIESVTGSSATSNAQAGGNSIRAAESALILENHRLKKLEELETTNQSLKSRSNENFSSFEKHIGRVIRQISGTKDSVSGKINDIVKIFKDPRCPVSISIAAFAKKMVTTKEKPNPFACSYVIVYINSQFPQVMDILLAEFHAACIYTVPKHIVNSQSAWDSDAYERLDSIMRLYGALVQTDIRVGNATNVHGIEHGWAWLARFLNKIPANRATATALNSFLQTAGFGLHQRYKSQFLKVVNVVREHFLQKLRAKKDTSDLLVIIAEITAYLDDRMYLKEPEGRAMKTTSTLSSELTAELNQPNYNQNYQRNDYRNYY
stimulation of LOS4 ATPase activity in the absence of InsP6 (LOS4 ATPase; RNA, no InsP6): reduced abilities to stimulate LOS4 | decrease in LOS4-stimulating activity in the absence of InsP6 (LOS4 ATPase; K436A mutation vs MBP-Gle1C, no InsP6): > 2 fold

B4: LOS4-His: 6×-histidine-fused LOS4, Arabidopsis DEAD-box ATPase/RNA helicase, homolog of yeast Dbp5 (protein)
chain: MADTVEKVPTVVESSSSSTVEASNSAEKTEPTTEKKKWGDVEDDDDEEEAVSELNSLSIKEEEKPDSILEEPEDSNIKAVTSGDTPYTSASRFEDLNLSPELMKGLYVEMKFEKPSKIQAISLPMIMTPPHKHLIAQAHNGSGKTTCFVLGMLSRVDPTLREPQALCICPTRELANQNMEVLQKMGKFTGITAELAVPDSTRGAPAATRGAPVSAHVVIGTPGTLKKWMAFKRLGLNHLKILVFDEADHMLATDGFRDDSLKIMKDIGRVNPNFQVLLFSATFNETVKDFVARTVKDPNQLFVKREDLALDSVKQYKVVCPKEQNKIEVIKDQIMELGDIGQTIIFVKTKASAQKVHKALAEMGYDVTSVHGNLTESDRDKIVKEFKECLTQVLIATDVIARGFDQQRVNLVVNYNLPTKYETGEPDYEVYLHRVGRAGRFGRKGAVFNLLLDDGWDKEVMEKIEKYFEANVKEIKSWNSEEEYKSALKEAGLLDE
apparent kcat of LOS4-His (LOS4 ATPase; LOS4-His (1 μM) alone, 0-2 mM ATP): 0.267 s⁻¹ | beacon fluorescence (LOS4 RNA helicase activity) [3]: did not increase the fluorescence of the beacons

B5: MBP-Gle1: maltose-binding protein (MBP)-fused full-length Arabidopsis Gle1 (protein)
chain: MGIVLEPPCPKSVDGISIDPEPNWNFESLVAEIASVEKKLNGFSMYPQPITNTTLRMGRRGGGFVMHVSEDEMESDEGEESDDEEEEEDHSQICTAGKRFACDELYLSDESDEEFDHEPEYMMNKLGLAESALYEVINDHQTEIKDDIRNQVSVVETEIMNEIETSLSAIARVEKYSETRKEVERKLDLQYQRKVAEALDTHLTAVQREHKIKSQIEERKIRSEEAQEEARRKERAHQEEKIRQEKARAEAQMLAKIRAEEEKKEVERKAAREVAEKEVADRKAAEQKLAEQKAVIESVTGSSATSNAQAGGNSIRAAESALILENHRLKKLEELETTNQSLKSRSNENFSSFEKHIGRVIRQISGTKDSVSGKINDIVKIFKDPRCPVSISIAAFAKKMVTTKEKPNPFACSYVIVYINSQFPQVMDILLAEFHKACIYTVPKHIVNSQSAWDSDAYERLDSIMRLYGALVQTDIRVGNATNVHGIEHGWAWLARFLNKIPANRATATALNSFLQTAGFGLHQRYKSQFLKVVNVVREHFLQKLRAKKDTSDLLVIIAEITAYLDDRMYLKEPEGRAMKTTSTLSSELTAELNQPNYNQNYQRNDYRNYY
induction of LOS4 ATPase activity (LOS4 ATPase; LOS4-His 1 μM, ATP 2 mM, RNA 50 μg/ml and MBP-Gle1 (full length) 2 μM): threefold | beacon fluorescence (LOS4 RNA helicase activity) [3]: significant increase in fluorescence in a concentration-dependent manner | pull-down by nickel resin-bound LOS4-His (LOS4-His): could pull down MBP-Gle1
